Assay results taken from article PMC3894171, “Defining NELF-E RNA Binding in HIV-1 and Promoter-Proximal Pause Regions”.

Experiments:
dNELF-E(mut) [1] = target: T1, dNELF-E(mut) (Drosophila, UniProt P92204 1-280, N173E;K174D;V175M;E177P;D178T;F179L); assay: F-EMSA; 10 mM HEPES-NaOH pH 7.5, 100 mM NaCl, 25 mM KCl, 1 mM MgCl2, 0.02% Tween-20, 0.01% IGEPAL CA-630, 10 µg/ml yeast tRNA; 2 nM RNA, 0-2000 nM protein, 1-2 h, binding temperature not stated; gel 5% acrylamide 0.5X TBE at 4 °C; details: protein: recombinant, tags: N-terminal His6 (pHIS-parallel1), label: 3' fluorescein (5-thiosemicarbazide)
T1 sequence: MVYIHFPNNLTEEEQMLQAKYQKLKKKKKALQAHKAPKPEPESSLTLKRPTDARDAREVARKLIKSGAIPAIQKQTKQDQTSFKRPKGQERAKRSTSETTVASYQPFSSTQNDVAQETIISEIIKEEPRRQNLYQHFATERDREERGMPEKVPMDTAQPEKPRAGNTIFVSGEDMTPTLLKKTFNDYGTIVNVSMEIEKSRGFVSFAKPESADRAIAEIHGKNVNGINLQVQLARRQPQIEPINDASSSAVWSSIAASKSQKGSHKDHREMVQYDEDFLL

dNELF-E(mut) [2] = target: T1, dNELF-E(mut); assay: fluorescence polarization; 10 mM HEPES-NaOH pH 7.5, 100 mM NaCl, 25 mM KCl, 1 mM MgCl2, 0.02% Tween-20, 0.01% IGEPAL CA-630, 10 µg/ml yeast tRNA; 2 nM RNA, 0-2000 nM protein, 1-2 h, binding temperature not stated; gel 5% acrylamide 0.5X TBE at 4 °C; details: protein: recombinant, tags: N-terminal His6 (pHIS-parallel1), label: 3' fluorescein (5-thiosemicarbazide)
hNELF-E(mut) [3] = target: T2, hNELF-E(mut) (human, UniProt P18615 1-380, E269N;D270K;M271V;P273E;T274D;L275F); assay: F-EMSA; 10 mM HEPES-NaOH pH 7.5, 100 mM NaCl, 25 mM KCl, 1 mM MgCl2, 0.02% Tween-20, 0.01% IGEPAL CA-630, 10 µg/ml yeast tRNA; 2 nM RNA, 0-2000 nM protein, 1-2 h, binding temperature not stated; gel 5% acrylamide 0.5X TBE at 4 °C; details: protein: recombinant; tags: N-terminal His6 (pHIS-parallel1); label: 3' fluorescein (5-thiosemicarbazide); hairpin with UCU bulge
T2 sequence (P18615 whole entry E269N/D270K/M271V/P273E/T274D/L275F): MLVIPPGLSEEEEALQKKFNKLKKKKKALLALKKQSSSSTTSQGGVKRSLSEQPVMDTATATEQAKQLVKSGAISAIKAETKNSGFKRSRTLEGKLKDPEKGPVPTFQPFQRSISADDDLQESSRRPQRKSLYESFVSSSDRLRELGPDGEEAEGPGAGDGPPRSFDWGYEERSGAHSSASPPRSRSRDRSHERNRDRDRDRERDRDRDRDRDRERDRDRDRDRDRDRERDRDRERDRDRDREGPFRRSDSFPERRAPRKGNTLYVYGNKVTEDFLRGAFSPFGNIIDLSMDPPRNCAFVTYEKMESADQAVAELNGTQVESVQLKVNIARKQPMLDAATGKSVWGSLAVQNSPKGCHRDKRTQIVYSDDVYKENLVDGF

hNELF-E(mut) [4] = target: T2, hNELF-E(mut); assay: fluorescence polarization; 10 mM HEPES-NaOH pH 7.5, 100 mM NaCl, 25 mM KCl, 1 mM MgCl2, 0.02% Tween-20, 0.01% IGEPAL CA-630, 10 µg/ml yeast tRNA; 2 nM RNA, 0-2000 nM protein, 1-2 h, binding temperature not stated; gel 5% acrylamide 0.5X TBE at 4 °C; details: protein: recombinant; tags: N-terminal His6 (pHIS-parallel1); label: 3' fluorescein (5-thiosemicarbazide); hairpin with UCU bulge

B1: Napt1min (structured_RNA)
RNA: GGCCCCACUGAGGAUGCCCACGGGCGAUUGGGGCCA
Kd (dNELF-E(mut) [1]; putative K-turn stem-loop): 0.35 ± 0.05 µM | Kd (dNELF-E(mut) [2]; putative K-turn stem-loop): 0.095 ± 0.006 µM

B2: HIV-1 TAR (structured_RNA)
RNA: GGUCUCUCUGGUUAGACCAGAUCUGAGCCUGGGAGCUCUCUGGCUAACUAGGGAACC
Kd (hNELF-E(mut) [3]): 0.258 ± 0.017 µM | Kd (dNELF-E(mut) [1]; hairpin with UCU bulge): 0.27 ± 0.01 µM | Kd (hNELF-E(mut) [4]): 0.153 ± 0.007 µM | Kd (dNELF-E(mut) [2]; hairpin with UCU bulge): 0.13 ± 0.01 µM

B3: HIV-1 TAR+A (structured_RNA)
RNA: GGUCUCUCUGGUUAGACCAGAUCUGAGCCUGAGGAGCUCUCUGGCUAACUAGGGAACC
Kd (hNELF-E(mut) [3]): 0.233 ± 0.04 µM | Kd (dNELF-E(mut) [1]; hairpin with UCU bulge): 0.28 ± 0.03 µM | Kd (hNELF-E(mut) [4]): 0.17 ± 0.005 µM | Kd (dNELF-E(mut) [2]; hairpin with UCU bulge): 0.12 ± 0.01 µM
